Results as given in patent US20140242080A1 (Hoffmann-La Roche, published 2014).

Columns and labels:
[1] = target: T1, human MCSP expressed on tumor cells (Colo-38, WM266-4, A375, MV-3, HCT-116) (human, UniProt Q6UVK1 30-2322); test: cell-based or functional assay
[2] = target: T1, human MCSP expressed on tumor cells …; test: cell-based or functional assay; remark: listed apart in the source
[3] = target: T2, human CD3 expressed on Jurkat cells (human, UniProt P07766 23-207); test: flow cytometry on Jurkat cells
T2 construct: CD3 complex on Jurkat T cells; also called CD3 on Jurkat cells; huCD3
T2 sequence (P07766 23-207 limits assumed): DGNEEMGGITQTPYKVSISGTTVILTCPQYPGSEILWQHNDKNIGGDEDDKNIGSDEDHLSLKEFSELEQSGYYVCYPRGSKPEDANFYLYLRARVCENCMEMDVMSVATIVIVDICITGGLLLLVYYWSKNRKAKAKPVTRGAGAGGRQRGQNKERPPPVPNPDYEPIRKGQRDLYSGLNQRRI
Method: (§1) Binding of the different bispecific constructs to CD3 on Jurkat cells (ATCC #TIB-152), and the respective tumor antigen on target cells, was determined by FACS. Briefly, cells were harvested, counted and checked for viability. 0.15-0.2 million cells per well (in PBS containing 0.1% BSA; 90 μl) were plated in a round-bottom 96-well plate and incubated with the indicated concentration of the bispecific constructs and corresponding IgG controls (10 μl) for 30 min at 4° C. […] After the incubation, cells were centrifuged (5 min, 350×g), washed with 150 μl PBS containing 0.1% BSA, resuspended and incubated for further 30 min at 4° C. with 12 μl/well of a FITC- or PE-conjugated secondary antibody. Bound constructs were detected using a FACSCantoII (Software FACS Diva). The “(scFv)₂” molecule was detected using a FITC-conjugated anti-His antibody (Lucerna, #RHIS-45F-Z). For all other molecules, a FITC- or PE-conjugated AffiniPure F(ab′)2 Fragment goat anti-human IgG Fcγ Fragment Specific (Jackson Immuno Research Lab #109-096-098/working solution 1:20, or #109-116-170/working solution 1:80, respectively) was used. Cells were washed by addition of 120 μl/well PBS containing 0.1% BSA and centrifugation at 350×g for 5 min. A second washing step was performed with 150 μl/well PBS containing 0.1% BSA. […] EC50 values were calculated using the GraphPad Prism software.
As a control, the equivalent maximum concentration of the corresponding IgGs and the background staining due to the labeled 2ndary antibody (goat anti-human FITC-conjugated AffiniPure F(ab′)2 Fragment, FcγFragment-specific, Jackson Immuno Research Lab #109-096-098) were assessed as well.

[4] = target: T1, human MCSP expressed on tumor cells …; test: flow cytometry on WM266-4 cells
Method: as §1

[5] = target: T2, human CD3 expressed on Jurkat cells; test: flow cytometry on Jurkat cells, 50 nM
Method: as §1
(§2) In a first experiment, different bispecific constructs targeting human MCSP and human CD3 were analyzed by flow cytometry for binding to human CD3 expressed on Jurkat, human T cell leukaemia cells, or to human MCSP on Colo-38 human melanoma cells.

[6] = target: T1, human MCSP expressed on tumor cells …; test: flow cytometry on Colo-38 cells, 50 nM
Method: as §1, §2

HuFcγRIIIa-V158-K6H6 = target: T3, HuFcγRIIIa-V158-K6H6 (human, UniProt P08637 17-208, limits assumed); test: SPR Biacore T100, 25 C; receptor captured via anti-Penta His, construct as analyte; kinetic, one concentration (1000 nM)
T3 construct: His-tagged recombinant receptor captured by anti-Penta His antibody; also called human FcγRIIIa-V158; human FcγRIIIa
T3 sequence (P08637 17-208 F176V limits assumed): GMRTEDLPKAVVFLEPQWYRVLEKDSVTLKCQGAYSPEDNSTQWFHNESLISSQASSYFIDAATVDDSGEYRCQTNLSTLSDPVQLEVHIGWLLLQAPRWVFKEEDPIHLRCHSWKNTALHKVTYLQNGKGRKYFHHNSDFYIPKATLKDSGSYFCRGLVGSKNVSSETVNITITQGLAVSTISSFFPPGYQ
Method: For analyzing interaction of different Fc-variants with human FcγRIIIa-V158 and murine FcγRIV direct coupling of around 6,500 resonance units (RU) of the anti-Penta His antibody (Qiagen) is performed on a CM5 chip at pH 5.0 using the standard amine coupling kit (Biacore, Freiburg/Germany). HuFcγRIIIa-V158-K6H6 and muFcγRIV-aviHis-biotin are captured for 60 s at 4 and 10 nM respectively.
Constructs with different Fc-mutations are passed through the flow cells for 120 s at a concentration of 1000 nM with a flow rate of 30 μl/min. The dissociation is monitored for 220 s. Bulk refractive index differences are corrected for by subtracting the response obtained in a reference flow cell. […] Affinity for human FcγRIIIa-V158 and murine FcγRIV was determined for wild-type Fc using a concentration range from 500-4000 nM.

T1 sequence (Q6UVK1 30-2322): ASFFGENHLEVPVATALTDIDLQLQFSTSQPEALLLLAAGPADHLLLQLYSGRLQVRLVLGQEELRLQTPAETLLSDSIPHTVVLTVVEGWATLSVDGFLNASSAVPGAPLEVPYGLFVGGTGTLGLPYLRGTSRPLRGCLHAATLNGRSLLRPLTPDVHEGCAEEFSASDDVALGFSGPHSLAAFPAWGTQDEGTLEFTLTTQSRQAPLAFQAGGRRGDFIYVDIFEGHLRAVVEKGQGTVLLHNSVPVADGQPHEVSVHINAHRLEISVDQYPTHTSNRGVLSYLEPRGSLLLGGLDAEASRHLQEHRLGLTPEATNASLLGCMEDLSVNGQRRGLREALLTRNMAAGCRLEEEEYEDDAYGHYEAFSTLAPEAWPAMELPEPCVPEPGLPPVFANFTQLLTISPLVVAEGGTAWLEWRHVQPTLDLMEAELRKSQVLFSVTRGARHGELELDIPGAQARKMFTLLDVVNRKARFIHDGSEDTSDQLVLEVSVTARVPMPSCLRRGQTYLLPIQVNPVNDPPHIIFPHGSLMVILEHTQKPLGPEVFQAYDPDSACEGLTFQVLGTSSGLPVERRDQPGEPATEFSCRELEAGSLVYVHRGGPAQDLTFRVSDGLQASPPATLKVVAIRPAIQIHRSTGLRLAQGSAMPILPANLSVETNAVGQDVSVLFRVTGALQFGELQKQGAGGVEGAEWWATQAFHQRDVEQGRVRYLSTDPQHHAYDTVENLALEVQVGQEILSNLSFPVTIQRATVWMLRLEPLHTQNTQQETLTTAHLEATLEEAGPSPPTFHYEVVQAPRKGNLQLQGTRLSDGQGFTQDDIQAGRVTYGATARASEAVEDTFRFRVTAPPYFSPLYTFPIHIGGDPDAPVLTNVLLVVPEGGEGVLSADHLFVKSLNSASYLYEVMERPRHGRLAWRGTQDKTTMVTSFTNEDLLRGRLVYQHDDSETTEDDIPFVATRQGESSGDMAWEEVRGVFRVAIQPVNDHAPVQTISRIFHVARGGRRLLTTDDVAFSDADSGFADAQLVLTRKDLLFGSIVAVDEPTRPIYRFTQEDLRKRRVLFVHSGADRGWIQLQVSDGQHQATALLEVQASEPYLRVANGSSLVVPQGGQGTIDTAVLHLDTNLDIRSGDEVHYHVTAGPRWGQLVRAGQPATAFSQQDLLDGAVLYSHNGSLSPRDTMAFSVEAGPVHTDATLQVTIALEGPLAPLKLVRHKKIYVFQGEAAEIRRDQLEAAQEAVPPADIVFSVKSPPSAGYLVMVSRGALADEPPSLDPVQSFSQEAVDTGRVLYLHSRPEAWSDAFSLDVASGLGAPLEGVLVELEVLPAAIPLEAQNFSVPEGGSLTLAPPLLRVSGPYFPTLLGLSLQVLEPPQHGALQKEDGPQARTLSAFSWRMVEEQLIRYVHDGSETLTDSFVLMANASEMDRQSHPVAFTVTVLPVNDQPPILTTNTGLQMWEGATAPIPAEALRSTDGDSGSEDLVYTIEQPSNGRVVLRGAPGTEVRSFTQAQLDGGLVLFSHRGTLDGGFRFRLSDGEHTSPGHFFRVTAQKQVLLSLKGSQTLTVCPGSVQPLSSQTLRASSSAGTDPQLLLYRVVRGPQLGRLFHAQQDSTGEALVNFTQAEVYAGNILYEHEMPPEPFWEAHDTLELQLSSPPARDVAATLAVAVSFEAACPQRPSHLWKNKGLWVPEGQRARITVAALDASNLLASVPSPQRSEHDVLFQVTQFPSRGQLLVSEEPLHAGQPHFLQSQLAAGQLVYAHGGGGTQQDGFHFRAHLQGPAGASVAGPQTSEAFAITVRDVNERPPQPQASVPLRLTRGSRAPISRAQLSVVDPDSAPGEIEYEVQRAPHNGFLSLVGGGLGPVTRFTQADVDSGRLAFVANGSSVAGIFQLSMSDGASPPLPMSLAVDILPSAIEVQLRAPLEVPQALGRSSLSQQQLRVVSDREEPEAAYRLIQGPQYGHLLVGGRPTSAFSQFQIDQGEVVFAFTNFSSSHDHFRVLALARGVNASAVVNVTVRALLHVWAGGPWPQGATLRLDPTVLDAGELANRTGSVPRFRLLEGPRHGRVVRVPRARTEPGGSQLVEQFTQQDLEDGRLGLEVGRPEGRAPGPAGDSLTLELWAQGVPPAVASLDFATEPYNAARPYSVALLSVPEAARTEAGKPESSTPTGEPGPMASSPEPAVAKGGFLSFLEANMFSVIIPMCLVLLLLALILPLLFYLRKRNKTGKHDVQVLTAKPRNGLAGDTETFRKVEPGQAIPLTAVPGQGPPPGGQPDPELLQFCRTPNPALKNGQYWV

B1: 2 + 1 IgG Crossfab; VH/VL exchange (LC007/V9) (anti-MCSP/anti-huCD3) (bispecific antibody)
chain 1: not shown
chain 2: DIVLTQSPSSLSASLGDRVTISCSASQGIRNYLNWYQQRPDGTVKLLIYYTSSLHSGVPSRFSGSGSGTDYSLTISNLEPEDIATYYCQQYSKLPWTFGGGTKLEIKRTVAAPSVFIFPPSDEQLKSGTASVVCLLNNFYPREAKVQWKVDNALQSGNSQESVTEQDSKDSTYSLSSTLTLSKADYEKHKVYACEVTHQGLSSPVTKSFNRGEC
chain 3: DIQMTQSPSSLSASVGDRVTITCRASQDIRNYLNWYQQKPGKAPKLLIYYTSRLESGVPSRFSGSGSGTDYTLTISSLQPEDFATYYCQQGNTLPWTFGQGTKVEIKSSASTKGPSVFPLAPSSKSTSGGTAALGCLVKDYFPEPVTVSWNSGALTSGVHTFPAVLQSSGLYSLSSVVTVPSSSLGTQTYICNVNHKPSNTKVDKKVEPKSCGGGGSGGGGSEVQLQESGPGLVKPSQSLSLTCSVTGYSITSGYYWNWIRQFPGNKLEWMGYITYDGSNNYNPSLKNRISITRDTSKNQFFLKLNSVTTEDTATYYCADFDYWGQGTTLTVSSASTKGPSVFPLAPSSKSTSGGTAALGCLVKDYFPEPVTVSWNSGALTSGVHTFPAVLQSSGLYSLSSVVTVPSSSLGTQTYICNVNHKPSNTKVDKKVEPKSCDKTHTCPPCPAPEAAGGPSVFLFPPKPKDTLMISRTPEVTCVVVDVSHEDPEVKFNWYVDGVEVHNAKTKPREEQYNSTYRVVSVLTVLHQDWLNGKEYKCKVSNKALGAPIEKTISKAKGQPREPQVCTLPPSRDELTKNQVSLSCAVKGFYPSDIAVEWESNGQPENNYKTTPPVLDSDGSFFLVSKLTVDKSRWQQGNVFSCSVMHEALHNHYTQKSLSLSPGK
chain 4: EVQLVESGGGLVQPGGSLRLSCAASGYSFTGYTMNWVRQAPGKGLEWVALINPYKGVSTYNQKFKDRFTISVDKSKNTAYLQMNSLRAEDTAVYYCARSGYYGDSDWYFDVWGQGTLVTVSSASVAAPSVFIFPPSDEQLKSGTASVVCLLNNFYPREAKVQWKVDNALQSGNSQESVTEQDSKDSTYSLSSTLTLSKADYEKHKVYACEVTHQGLSSPVTKSFNRGEC
notes: vectors second heavy chain:light chain:first heavy chain-heavy chain Crossfab:light chain Crossfab 1:2:1:1; also called 2+1 IgG Crossfab (V9)
EC50 of T cell-mediated killing (LDH release), MV-3 cells, human PBMCs E:T 10:1, 21 h [1]: 0.0092 nM | EC50 of T cell-mediated killing (LDH release), WM266-4 cells, human PBMCs E:T 10:1, 21 h [1]: 0.0331 nM | EC50 [pM] of T cell-mediated killing (LDH release), MV-3 cells, human PBMCs E:T 10:1, about 24 h [2]: 10 pM | EC50 [pM] of T cell-mediated killing (LDH release), WM266-4 cells, human PBMCs E:T 10:1, about 24 h [2]: 12.4 pM | EC50 [3]: 1.66 nM | EC50 [4]: 0.95 nM

B2: “2+1 IgG scFab, LALA” (anti-MCSP/anti-huCD3) (bispecific antibody)
chain 1: DIVLTQSPSSLSASLGDRVTISCSASQGIRNYLNWYQQRPDGTVKLLIYYTSSLHSGVPSRFSGSGSGTDYSLTISNLEPEDIATYYCQQYSKLPWTFGGGTKLEIKRTVAAPSVFIFPPSDEQLKSGTASVVCLLNNFYPREAKVQWKVDNALQSGNSQESVTEQDSKDSTYSLSSTLTLSKADYEKHKVYACEVTHQGLSSPVTKSFNRGEC
chain 2: not shown
chain 3: EVQLQESGPGLVKPSQSLSLTCSVTGYSITSGYYWNWIRQFPGNKLEWMGYITYDGSNNYNPSLKNRISITRDTSKNQFFLKLNSVTTEDTATYYCADFDYWGQGTTLTVSSASTKGPSVFPLAPSSKSTSGGTAALGCLVKDYFPEPVTVSWNSGALTSGVHTFPAVLQSSGLYSLSSVVTVPSSSLGTQTYICNVNHKPSNTKVDKKVEPKSCDKTHTCPPCPAPEAAGGPSVFLFPPKPKDTLMISRTPEVTCVVVDVSHEDPEVKFNWYVDGVEVHNAKTKPREEQYNSTYRVVSVLTVLHQDWLNGKEYKCKVSNKALPAPIEKTISKAKGQPREPQVCTLPPSRDELTKNQVSLSCAVKGFYPSDIAVEWESNGQPENNYKTTPPVLDSDGSFFLVSKLTVDKSRWQQGNVFSCSVMHEALHNHYTQKSLSLSPGK
notes: Fc with L234A L235A; also called Fc-LALA; copies: 2 + 1 + 1
binding result [5]: binds | binding result [6]: binds | Kd (HuFcγRIIIa-V158-K6H6): 2130 nM

B3: “1+1 IgG scFab, one armed” (anti-MCSP/anti-huCD3) (bispecific antibody)
chain 1: not shown
chain 2: not shown
chain 3: DIVLTQSPSSLSASLGDRVTISCSASQGIRNYLNWYQQRPDGTVKLLIYYTSSLHSGVPSRFSGSGSGTDYSLTISNLEPEDIATYYCQQYSKLPWTFGGGTKLEIKRTVAAPSVFIFPPSDEQLKSGTASVVCLLNNFYPREAKVQWKVDNALQSGNSQESVTEQDSKDSTYSLSSTLTLSKADYEKHKVYACEVTHQGLSSPVTKSFNRGEC
binding result [5]: binds | binding result [6]: binds

B4: “1+1 IgG scFab, one armed inverted” (anti-MCSP/anti-huCD3) (bispecific antibody)
chain 1: DIVLTQSPSSLSASLGDRVTISCSASQGIRNYLNWYQQRPDGTVKLLIYYTSSLHSGVPSRFSGSGSGTDYSLTISNLEPEDIATYYCQQYSKLPWTFGGGTKLEIKRTVAAPSVFIFPPSDEQLKSGTASVVCLLNNFYPREAKVQWKVDNALQSGNSQESVTEQDSKDSTYSLSSTLTLSKADYEKHKVYACEVTHQGLSSPVTKSFNRGECSGGGSGGGSEGGGSEGGGSEGGGSEGGGSGGGSGEVQLQESGPGLVKPSQSLSLTCSVTGYSITSGYYWNWIRQFPGNKLEWMGYITYDGSNNYNPSLKNRISITRDTSKNQFFLKLNSVTTEDTATYYCADFDYWGQGTTLTVSSASTKGPSVFPLAPSSKSTSGGTAALGCLVKDYFPEPVTVSWNSGALTSGVHTFPAVLQSSGLYSLSSVVTVPSSSLGTQTYICNVNHKPSNTKVDKKVEPKSCDGGGGSGGGGSGAQDKTHTCPPCPAPEAAGGPSVFLFPPKPKDTLMISRTPEVTCVVVDVSHEDPEVKFNWYVDGVEVHNAKTKPREEQYNSTYRVVSVLTVLHQDWLNGKEYKCKVSNKALPAPIEKTISKAKGQPREPQVCTLPPSRDELTKNQVSLSCAVKGFYPSDIAVEWESNGQPENNYKTTPPVLDSDGSFFLVSKLTVDKSRWQQGNVFSCSVMHEALHNHYTQKSLSLSPGK
chain 2: not shown
chain 3: not shown
binding result [5]: binds | binding result [6]: binds
